# From US20190262327A1, “COMBINATION OF A BACE INHIBITOR AND AN ANTIBODY OR ANTIGEN-BINDING FRAGMENT FOR THE TREATMENT OF A DISORDER ASSOCIATED WITH THE ACCUMULATION OF AMYLOID BETA” (ASTRAZENECA AB, priority 2016, published 2019)
# Assays:
# [1] = target: T1, Amyloid beta 1-42 peptide (Rattus norvegicus, UniProt P08592); assay: Total Amyloid beta 1-42 peptide in rat brain homogenates (ELISA); assay type: in vivo; details: Sprague-Dawley rats, 0.25-10 mg/kg weekly over 14 days
# T1 construct: Measurement of free Amyloid beta 1-42 peptide in rat CSF; from tissue; host or cells: CSF and brain homogenate of Sprague-Dawley rats
# T1 sequence (P08592 672-713 limits assumed): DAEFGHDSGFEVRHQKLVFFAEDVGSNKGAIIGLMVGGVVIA
# Procedure: Eight-week old male albino Harlan Sprague-Dawley rats (n=8-12) received a single dose of Abet0380-GL IgG1-TM antibody by intravenous injection with a dosing vehicle of 25 mM Histidine, 7% Sucrose, 0.02% p80 surfactant, pH 6.0 at 5 ml/kg. Dosing solutions were made just before dosing. Animals were anaesthetized at the time indicated and cerebrospinal fluid (CSF) was aspirated from the cistema magna. CSF samples were centrifuged for 10 minutes at approximately 3000× g at 4° C. within 20 minutes of sampling to remove cells or debris. Samples were then frozen on dry ice and stored at −70° C. for subsequent analysis.
# Animals were sacrificed by decapitation, brain tissue was dissected and Amyloid beta peptides were extracted from brain tissue in diethylamine (DEA; Fluka. Sigma. UK; cat: 31729). Briefly, frozen brain tissue was homogenized in 0.2% DEA and 50 mM NaCl (Merck, USA: cat: 1.06404.1000). Brain homogenates were ultracentrifuged at 133,000×g, for 1 hour. Recovered supernatants were neutralized to pH 8.0 with 2 M Tris-HCl (TRIZMA®-hydrochloride; Sigma, UK; cat: 93363) and stored at −70° C. until analysis. Animal experimentations were performed in accordance with relevant guidelines and regulations provided by the Swedish Board of Agriculture. The ethical permission was provided by an ethical board specialized in animal experimentations: the Stockholm Södra Animal Research Ethical Board.
# Measurement of total (free and Abet0380-GL bound) Amyloid beta 1-42 peptide in rat brain homogenates was performed using modifications of the mouse Amyloid beta (1-42) colorimetric ELISA kit (Invitrogen, UK: cat: KMB3441). […] To stop the reaction, 100 μl of Stop Solution was added to each well and the plate was read within 2 hours at an absorbance of 450 nm. […]
# The ability of antibody Abet0144-GL to sequester amyloid beta 1-42 was investigated in a PK-PD study in normal rats. […] Free and total amyloid beta 1-42 levels were measured using assays described above.
# [2] = system: Amyloid plaques; assay: In vitro immunohistochemistry on Tg2576 mouse brain sections
# Source text: Briefly, the lead antibodies were screened on human Alzheimer's Disease brain sections and Tg2576 mouse brain sections to identify anti-Amyloid beta 1-42 antibodies that bound to Amyloid plaques in vitro.
# In these experiments, human brain tissue was isolated from the frontal cortex of two individuals with severe Alzheimer's Disease (ApoE genotype 3/3, Braak stage 6 and ApoE genotype 4/3, Braak stage 5). As a control, equivalent tissue was isolated from one non-dementia individual (ApoE genotype 3/3, Braak stage 1). Mouse brain tissue was isolated from Tg2576 mice at an age of 15 months (2 mice) and 22 months (2 mice). Antibodies were tested at concentrations of 2, 5, 10 and 20 ug ml^−1.
# [3] = target: T2, human Amyloid beta 1-42 peptide (Homo sapiens, UniProt P05067); assay: Surface Plasmon Resonance binding kinetics of IgGs (BIAcore T-100); details: IgG1-TM captured on protein G; 1:1 Langmuir fit
# T2 construct: biotinylated human Amyloid beta 1-42 peptide (rpeptide, USA; cat: A1117); purchased rPeptide, USA A1117; host or cells: synthetic peptide
# T2 sequence (P05067 672-713): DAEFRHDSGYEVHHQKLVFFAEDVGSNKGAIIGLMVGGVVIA
# Procedure: Surface Plasmon Resonance was used to analyse the binding kinetics of the affinity-optimized IgGs (section 1.8) and their germlined counterparts (section 1.9). Briefly, the BIAcore T-100 (GE Healthcare, UK) biosensor instrument was used to assess the kinetic parameters of the interaction between each test IgG and synthetically-produced human Amyloid beta 1-42 peptide. These experiments were performed essentially as described by Karsson et al. (Karlsson et al., 1991).
# The affinity of binding between each test IgG and human Amyloid beta 1-42 was estimated using assays in which each antibody was non-covalently captured by a protein G surface that was itself amine linked to a proprietary CM5 chip. The chip surface was regenerated between cycles by paired 40 second injections of 10 mM Glycine pH 2.0 to remove ligand and bound antibody. The test antibody was then reapplied for each peptide injection.
# A series of dilutions of synthetic human Amyloid beta 1-42 peptide (0.063-1024 nM) were sequentially passed over the antibody surface for a sufficient amount of time to observe sensorgrams that could be fitted to an appropriate binding model with confidence. […]
# The validity of the data was assessed using the calculated Chi^2 value, with an acceptable value being under 2 RU^2. […]
molecule,measurement,setting,value
"Abet0380-GL IgG1-TM: germlined Abet0380; VH SEQ ID NO: 524, VL SEQ ID NO: 533; human IgG1 triple mutant format (antibody, listed as Homo sapiens, V domains shown, human IgG1 triple mutant constant region; /note=“Abet0380-GL”, germlined Abet0380; human IgG1 triple mutant format) VH: EVQLLESGGGLVQPGGSLRLSCAASMGNFNYQTMWWVRQAPGKGLEWVSVIGKTNENIAYADSVKGRFTISRDNSKNTLYLQMNSLRAEDTAVYYCAREWMDHSRPYYYYGMDVWGQGTLVTVSS VL: SYELTQPPSVSVSPGQTASITCSGHNLEDKFASWYQQKPGQSPVLVIYRDDKRPSGIPERFSASNSGHTATLTISGTQAMDEADYYCSSQDTVTRVFGGGTKLTVL",effect on total Amyloid beta 1-42 peptide in brain tissue,[1],dose-dependent increase
same,core plaques (CP) staining score,[2]; Tg2576 brain sections,4
same,plaque recognition score,"[2]; Tg2576 mouse brain sections, 22 month old mice, 20 μg/ml",4
same,association rate constant (ka),[3],952000 M⁻¹ s⁻¹
same,dissociation rate constant (kd),[3],0.000307 s⁻¹
